Test results from paper PMC6660772.

B1: KAP1 RBCC (residues 50-413), wild type [human] / itself (parent)
chain: SPAGGGAEALELLEHCGVCRERLRPEREPRLLPCLHSACSACLGPAAPAAANSSGDGGAAGDGTVVDCPVCKQQCFSKDIVENYFMRDSGSKAATDAQDANQCCTSCEDNAPATSYCVECSEPLCETCVEAHQRVKYTKDHTVRSTGPAKSRDGERTVYCNVHKHEPLVLFCESCDTLTCRDCQLNAHKDHQYQFLEDAVRNQRKLLASLVKRLGDKHATLQKSTKEVRSSIRQVSDVQKRVQVDVKMAILQIMKELNKRGRVLVNDAQKVTEGQQERLERQHWTMTKIQKHQEHILRFASWALESDNNTALLLSKKLIYFQLHRALKMIVDPVEPHGEMKFQWDLNAWTKSAEAFGKIVAERP

Variants of: B1
Assay: SEC-MALS
Details: with itself; mutant 179 µM; WT 159 µM; read off a plot

Variant	screen value [kDa]
chain 1 A111D T114A E126R	95
